Patent US7985736B2, “High throughput screen utilizing newly discovered intramolecular neuronal calcium channel interactions to discover new analgesics” (The John Hopkins University, priority 2004, dated 2011)

Target: T1, I-IIB-YFP (Homo sapiens, UniProt Q00975)
T1 construct: I-IIB residues, 357-482; expressed in transfected cells; host or cells: HEK293
Assay: Live-cell FRET two-hybrid assay versus I-IIB-YFP in HEK293 cells
Assay type: binding
Text: To confirm preferential interaction of NTB with I-IIB a live-cell FRET two-hybrid assay was used (Erickson et al., 2003), in which NTB, NTC, I-IIB, and I-IIC were fused to either CFP or YFP, and the resulting fusion constructs expressed pair-wise in mammalian HEK293 cells. Given a Forster distance of ˜50 Å for the CFP/YFP pair (Patterson et al., 2000), the presence of FRET in individual cells would give a strong indication of interpeptide binding in the mammalian intracellular milieu. This indication is generally characterized by a low false-positive rate (Erickson et al., 2003), so that FRET assays provide a useful complement to yeast two-hybrid assays (Allen et al., 1995). […] SCFP (the signal derived from an image obtained with the CFP filter cube) is selective for CFP fluorescence and thereby gives an optical measure of NTB-CFP expression. Analogously, the SYFP signal, derived from preferential excitation and detection of YFP, estimates I-IIB-YFP levels. Finally, the SFRET signal reflects I-IIB-YFP fluorescence stimulated by FRET transfer from NTB-CFP, as well as secondary cross-talk signals. These three signals can be incorporated within a three-cube FRET algorithm to determine the strength of FRET interaction (“FRET ratio,” FR), independently of cross-talk (Erickson et al., 2001). FR adopts a value of unity in the absence of FRET and grows linearly with increasing FRET efficiency (Erickson et al., 2003). FR values for many individual cells are plotted as circles in FIG. 2Eb, with numerous determinations clearly greater than unity. Alternatively, FR values specified by a YFP-photobleaching methodology were also elevated above unity (triangles) (Bastiaens and Jovin, 1996). […] Consistent with yeast two-hybrid assays, then, FRET assays confirmed a selective propensity for NTB and I-IIB segments to associate.
Human m2 muscarinic acetylcholine receptor (AF498916) was engineered to reduce desensitization (Pals-Rylaarsdam and Hosey, 1997). QuikChange (Stratagene, La Jolla, Calif.) introduced cluster mutations, yielding m2R: residues 286-290 (STSVS/AAAVA), residues 307-311 (TVSTS/AVAAA). For FRET assays, base templates were ECFP/EYFP-tagged calmodulin constructs in pcDNA3 (Invitrogen, Carlsbad, Calif.), as described (Erickson et al., 2001). PCR-amplified channel segments or G proteins were substituted for calmodulin via upstream EcoRI and downstream NheI sites, creating in-frame fusions with fluorophore (ECFP/EYFP C-terminal to test molecules). NTC residues, 1-53; I-IIB residues, 357-482; and I-IIC residues, 436-554.
Experiments were performed mostly as previously described (Erickson et al., 2001; Erickson et al., 2003). Briefly, the FRET Ratio (FR) is the fractional increase in YFP emission due to FRET. […] For donor-dequenching analysis, EEFF is calculated as EEFF=^1−CFPpre/CFPpost, where CFPpre and CFPpost are the CFP emissions before/after 3 min YFP photobleaching. FR is determined by FR=(EEFF/[EYFP/ECFP])+1, where EYFP/ECFP is ratio of YFP and CFP molar extinction coefficients through 440 nm excitation bandpass of FRET cube (0.0574). For binding model analysis, Kd,EFF is the effective dissociation constant, related to actual Kd via filter/microscope optical characteristics. […]
Experiments were performed as described previously for the most part (Erickson et al., 2001; Erickson et al., 2003). Specifically, for quantitative analysis, all fluorescence from single cells were isolated through a pinhole in the image plane, and detected by photo-multiplier tube. In all three-cube FRET experiments, CFP levels were below a threshold where spurious, concentration-dependent FRET became significant (Stratton et al., 2004). Similarly, for donor-dequenching experiments, YFP levels were below an analogous threshold. […]

T1 sequence (Q00975 357-482): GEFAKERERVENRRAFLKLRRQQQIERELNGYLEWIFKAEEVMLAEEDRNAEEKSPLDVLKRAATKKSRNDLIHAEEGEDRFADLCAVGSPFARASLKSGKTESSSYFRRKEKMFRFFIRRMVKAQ

Kd,EFF relative to NTB/I-IIB (NTC-CFP versus I-IIB-YFP, lower-limit estimate): ≥ 8 fold
Kd,EFF / affinity for I-IIB (FRET), in words (relative dissociation constant, HEK293 cells): larger by an order of magnitude or more
Substance: NTC: NH3 terminus of L-type channel α1C subunit, free peptide [reference compound]
